Data from patent US20260317413 (published 2026).
Read-outs that look alike come from different tables or passages of the source.

What was measured:
alpha-cobratoxin [1] = biological target: T1, alpha-cobratoxin (Naja kaouthia, UniProt P01391); test: SPR
T1 chain: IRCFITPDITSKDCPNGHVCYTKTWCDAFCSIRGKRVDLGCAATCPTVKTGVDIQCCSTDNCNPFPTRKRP

alpha-bungarotoxin [2] = biological target: T2, alpha-bungarotoxin (Bungarus multicinctus, UniProt P60615); test: BLI
alpha-cobratoxin [3] = biological target: T1, alpha-cobratoxin; test: BLI
alpha-cobratoxin [4] = biological target: T1, alpha-cobratoxin; test: BLI
alpha-cobratoxin [5] = biological target: T1, alpha-cobratoxin; test: BLI
alpha-cobratoxin [6] = biological target: T1, alpha-cobratoxin; test: SPR
alpha-bungarotoxin [7] = biological target: T2, alpha-bungarotoxin; test: BLI; remark: listed apart in the source
alpha-cobratoxin [8] = biological target: T1, alpha-cobratoxin; test: BLI

T2 sequence (P60615 22-95): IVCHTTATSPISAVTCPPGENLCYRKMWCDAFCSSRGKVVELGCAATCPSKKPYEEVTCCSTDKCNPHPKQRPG

B1: 2554_01_D11 (antibody, V domains shown)
VH: QVQLVQSGAEVKKPGSSVKVSCKASGGTFSSYAISWVRQAPGQGLEWMGGIIPIFGTANYAQKFQGRVTITADESTSTAYMELRSLRSDDTAVYYCARDNLGYCSGGSCYSDYYYYYMDVWGQGTLVTVSS
VL: SNFMLTQPRSVSESPGKTVTISCTRSSGSIGSDYVHWYQQRPGSSPTTVIYEDNQRPSGVPDRFSGSIDSSSNSASLTISGLKTEDEADYYCQSYDRSNHEVVFGGGTKLTVL
Kd (alpha-cobratoxin [1]): 2.3 nM | koff (alpha-bungarotoxin [2]): 0.00388 s⁻¹ | koff (alpha-cobratoxin [3]): 0.000396 s⁻¹ | koff (alpha-cobratoxin [4]): 0.000327 s⁻¹ | Kd (alpha-cobratoxin [5]): 2.9 nM | Kd (alpha-cobratoxin [6]): 10.4 nM | Kd (alpha-bungarotoxin [7]): 122 nM | Kd (alpha-cobratoxin [8]): 2.91 nM
